Data: publication PMC2883945 (Molecular Biology of the Cell, 2010)

B1: Bik1, endogenous in yeast whole cell extract (natural protein, S. cerevisiae (endogenous in CUY28), UniProt P11709 1-440, looked up)
chain: MDRYQRKIGCFIQIPNLGRGQLKYVGPVDTKAGMFAGVDLLANIGKNDGSFMGKKYFQTEYPQSGLFIQLQKVASLIEKASISQTSRRTTMEPLSIPKNRSIVRLTNQFSPMDDPKSPTPMRSFRITSRHSGNQQSMDQEASDHHQQQEFGYDNREDRMEVDSILSSDRKANHNTTSDWKPDNGHMNDLNSSEVTIELREAQLTIEKLQRKQLHYKRLLDDQRMVLEEVQPTFDRYEATIQEREKEIDHLKQQLELERRQQAKQKQFFDAENEQLLAVVSQLHEEIKENEERNLSHNQPTGANEDVELLKKQLEQLRNIEDQFELHKTKWAKEREQLKMHNDSLSKEYQNLSKELFLTKPQDSSSEEVASLTKKLEEANEKIKQLEQAQAQTAVESLPIFDPPAPVDTTAGRQQWCEHCDTMGHNTAECPHHNPDNQQFF
B2: Bim1 (purified from insect cells, 6xHis tag removed) (natural protein, S. cerevisiae, UniProt P40013 1-344, looked up)
chain: MSAGIGESRTELLTWLNGLLNLNYKKIEECGTGAAYCQIMDSIYGDLPMNRVKFNATAEYEFQTNYKILQSCFSRHGIEKTVYVDKLIRCKFQDNLEFLQWLKKHWIRHKDESVYDPDARRKYRPIITNNSATKPRTVSNPTTAKRSSSTGTGSAMSGGLATRHSSLGINGSRKTSVTQGQLVAIQAELTKSQETIGSLNEEIEQYKGTVSTLEIEREFYFNKLRDIEILVHTTQDLINEGVYKFNDETITGHGNGNGGALLRFVKKVESILYATAEGFEMNDGEDELNDKNLGEHGTVPNQGGYANSNGEVNGNEGSNHDVIMQNDEGEVGVSNNLIIDEETF
B3: Bim1, endogenous in yeast whole cell extract (natural protein, S. cerevisiae (endogenous in CUY28), UniProt P40013 1-344, looked up)
chain: B2 chain

Key:
[1] = biological target: the molecule itself; assay: SEC + other: sucrose gradient sedimentation
[2] = biological target: taxol-stabilized microtubules (bovine brain tubulin) (bovine) (UniProt Q6B856); assay: co-sedimentation
[3] = biological target: T1, Bik1 (purified from insect cells, 6xHis tag removed) (S. cerevisiae, UniProt P11709 1-440); assay: SEC + other: sucrose gradient sedimentation
T1 sequence (looked up): B1 chain

| Binder | stoichiometry N [1] | Kd [2] | stoichiometry N [3] |
| --- | --- | --- | --- |
| B1 | 2 | – | – |
| B2 | – | 500 nM | 1 Bim1 per Bik1 (2:2 tetramer) |
| B3 | 2 | – | – |
